{"source": "paper PMC2957411", "key": {"[1]": {"target": "T1, His6-HrpL (alternative sigma factor);core RNA polymerase (Epicentre) (Dickeya dadantii 3937;) (UniProt E0SE58+P0A7Z4+P0A8V2+P0A8T7+P0A800)", "assay": "competition"}, "[2]": {"target": "T1, His6-HrpL (alternative sigma factor);core RNA polymerase (Epicentre) (Dickeya dadantii 3937;)", "assay": "EMSA"}}, "data": [{"sequence": "CTTGGTGGCTGAGTCCATCTGGCCGTCGGTGATTGAGCTGATAGCATCGGTTTTCATTTTCTGCTCCTGGGCAGCGGTGGTCATCGCCGTGGTCGATGCCATGGTTTTGTCCAGAGACTGC (double strand) [hrpA ORF internal fragment (hrpAORF), no hrp box]", "values": [{"measurement": "binding", "setting": "[1]", "result": "no binding"}]}, {"sequence": "AAGTATCTGCAACGGATGCCCGCTCCGATCCCGATGCGGGCATCATGATGGATACTGGTTAATGAGTGACGCCAGCGGTGAAACGGTTCCCTGCCGTCGCCGGTTCGCCGCAAAAAAAGAAACCG (double strand) [hrpN promoter fragment with hrp box]", "values": [{"measurement": "binding", "setting": "[2]", "result": "binds"}]}, {"sequence": "GATTTCGCTATGAACTTTGCGACTTACACAGTCATCGTGTTCATAGATTAAGTAGGAGATAATGCGAGGTGGTTCCGAAAGATATTCACTTTTTTCCCCTGGTGGTGATAACAGGATACAGCC (double strand) [hrpA promoter fragment with hrp box]", "values": [{"measurement": "binding", "setting": "[2]", "result": "binds"}]}]}
